Substitutions are numbered along the chain they refer to. Names and notes keep the numbering of the source.
Target: T1, recombinant human lymphotoxin-α homotrimer (human LTα3) (human) (UniProt P01374)
T1 sequence (looked up): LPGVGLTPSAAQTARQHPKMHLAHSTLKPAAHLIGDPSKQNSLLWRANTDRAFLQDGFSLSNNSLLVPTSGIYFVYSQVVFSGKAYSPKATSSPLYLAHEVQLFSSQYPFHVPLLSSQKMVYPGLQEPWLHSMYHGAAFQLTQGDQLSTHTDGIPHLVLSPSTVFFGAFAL
Assay: plate-based ELISA against LTα

B1: 3F12 version 8 (3F12.v5 with G95A, CDR-H3) (antibody, IgG1, V domains shown)
VH: EVQLVESGGGLVQPGGSLRLSCAASGYTFSSYWIEWVRQAPGKGLEWVGEISPGSGSTNYNEEFKGRATFSADNSKNTAYLQMNSLRAEDTAVYYCADAYHGYWGQGTLVTVSS
VL: DIQMTQSPSSLSASVGDRVTITCKSSQSLLYSTNQKNFLAWYQQKPGKAPKLLIYWASTRDSGVPSRFSGSGSGTDFTLTISSLQPEDFATYYCQQYYSYPRTFGQGTKVEIK
In the case of B1, the relative binding (EC50 of the variant / EC50 of version 5) is reported as > 100.

B2: 3F12 version 10 (3F12.v5 with H100A, CDR-H3) (antibody, IgG1, V domains shown)
VH: B1 VH with A99G, H101A
VL: B1 VL
With B2 the relative binding (EC50 of the variant / EC50 of version 5) was > 100.

Source: patent publication US20130011412A1
